Source: patent US8329637B2, “Method for the treatment of automimmune diseases comprising administering rapamycin and IL-10” (priority 2002, dated 2012)

B1: IL-10: Human IL-10 (BD Biosciences), cytokine, 0.05 mg/Kg IP twice a day (protein, UniProt P22301 19-178, looked up)
Interleukin-10: SPGQGTQSENSCTHFPGNLPNMLRDLRDAFSRVKTFFQMKDQLDNLLLKESLLEDFKGYLGCQALSEMIQFYLEEVMPQAENQDPDIKAHVNSLGENLKTLRLRLRRCHRFLPCENKSKAVEQVKNAFNKLQEKGIYKAMSEFDIFINYIEAYMTMKIRN

Experiments:
NOD mice = experiment: Diabetes inhibition study in NOD mice; assay type: in vivo, mouse
Procedure: (B) Pre-diabetic mice were treated daily starting from 11 weeks of age with either rapamycin, rapamycin+IL-10 or IL-10 alone.
NOD mice were treated from 11 weeks to 31 weeks of age with IL-10 (IL-10, n=7 mice), or rapamycin (RAPA, n=13 mice), or rapamycin+IL-10 (RAPA/IL-10 n=16 mice), or vehicle (CNTR, n=22 mice). Diabetes incidence, monitored by glycemia levels, was stable at least up to 60 weeks of age. Administration of rapamycin alone reduced diabetes incidence from 95% to 46%.
In our proposed protocol, down-regulation of inflammation should be achieved by IL-10, and blockade of T effector cell expansion should be achieved by rapamycin. Neither IL-10 nor rapamycin prevent T cell priming and therefore they should allow induction of antigen-specific T regulatory cells, and as described below, IL-10 should promote the induction and expansion of Tr1 cells. We investigated the effect of rapamycin alone or in combination with IL-10 in treating autoimmunity in the NOD mouse a model for type I diabetes. […] Inhibition of type I diabetes was evaluated by treating NOD mice daily starting at 11 weeks of age (i.e. pre-diabetic mice with periinsultis) with rapamycin, rapamycin+IL-10, or IL-10 alone. […]
Mice. […] Glucose level in the tail venous blood was quantified using Glucometer Elite system (Bayer, Wuppertal, Germany). […]
Diabetes inhibition study. […] Diabetes incidence was monitored by blood glucose levels.

[1] = system: Tr1 and CD4+CD25+ T cells; experiment: Tr cell content (cytokine profile by CBA, CD4+CD25+ by FACS) in spleen, PLN and IIC of treated NOD mice; assay type: cell-based, mouse; details: islet infiltrating cells (FIG. 11)
Procedure: Cytokine production by CD4^+ T cells (left panels) and percentages of CD4^+CD25^+ T cells (right panels) were evaluated by CBA and FACS analysis respectively, in the spleen (A), pancreatic lymph nodes (PLN) (B), and islet infiltrating cells (IIC) (C) of untreated-diabetic NOD mice (gray bars), rapamycin-treated mice (white bars), or rapamycin+IL-10-treated mice (black bars). […] The percentages of CD4^+CD25^+ T cells were higher in the spleen, PLN, and IIC of both mice treated with rapamycin alone or rapamycin+IL-10 (black bars). Therefore, in rapamycin+IL-10 treated mice, Tr1 cells are present in the spleen and CD4^+CD25^+ Tr cells are present in the spleen, lymph nodes, and pancreas.
The mechanisms underlying long-term tolerance were analysed in tolerant mice of 50 weeks of age or older. […] However, the proportion of splenic CD4^+ T cells producing IL-4 was the same in both untreated and treated mice. […]
Flow cytometry. Cells were stained with the indicated Abs (all from BD), and were analyzed with a FACScan flow cytometer equipped with CellQuest software (BD).
Cytokine measurement. Cytokines present in the collected supernatants were quantified by sandwich ELISA or flow cytometry based assay (CBA), using standard commercially available kits (BD). The percentage of cells producing specific cytokines was measured by intracellular staining. […]

[2] = system: allogeneic C57BL/6 β-islets transplanted in diabetic Balb/c mice; experiment: Allogeneic β-islet transplantation (C57BL/6 into Balb/c), graft survival monitored by glycemia; assay type: in vivo, mouse
Procedure: Balb/c mice that had been rendered diabetic by streptozotocin injection were transplanted under the kidney capsule with purified allogeneic C57BL/6 β-islets. Mice were not treated (control, n=13 mice), or treated with rapamycin+antiTac+IL-10 (IL-10 protocol, n=16 mice) or rapamycin+antiTac+FK506 (Edmonton protocol, n=4 mice) for 30 days. Graft survival was monitored by glycemia levels. A graft was considered rejected when glycemia was higher than 250 mg/dl.
Balb/c mice that had been rendered diabetic by streptozotocin injection were transplanted under the kidney capsule with purified allogeneic C57BL/6 β-islets. Mice were not treated (control, n=8 mice), or treated with rapamycin in combination with IL-10 (rapa+IL10, n=8 mice) or IL10 only (n=4 mice). Graft survival was monitored by glycemia levels.
Allogeneic β-islet transplantation. A model of fully mismatched murine islet allotransplantation (C57BL/6 into Balb/C) was used.
Balb/c mice that had been rendered diabetic by streptozotocin injection were transplanted under the kidney capsule with purified allogeneic C57BL/6 β-islets.
Treatment of transplanted mice. […] Diabetes incidence was monitored by blood glucose levels.

Molecule	diabetes incidence (NOD mice; NOD mice treated from 11 to 31 weeks of age, vehicle 95% (FIG. 10A))	CD4+CD25+ T cells as share of CD4+ T cells isolated from IIC [1]	long-term graft survival ([2]; Balb/c mice treated for 30 days, without antiTac (FIG. 2))	prevention of graft rejection ([2]; Balb/c mice, FIG. 2)	effect on the development of diabetes (NOD mice; NOD mice treated from 11 to 31 weeks of age (FIG. 10A))
CO[C@H]1C[C@@H]2CC[C@@H](C)[C@@](O)(O2)C(=O)C(=O)N2CCCC[C@H]2C(=O)O[C@H]([C@H](C)C[C@@H]2CC[C@@H](O)[C@H](OC)C2)CC(=O)[C@H](C)/C=C(\C)[C@@H](O)[C@@H](OC)C(=O)[C@H](C)C[C@H](C)/C=C/C=C/C=C/1C [rapamycin]	46%	~100%	–	–	–
B1	–	–	30%	not efficient in preventing graft rejection	no significant effect
